Legend:
[1] = target: the molecule itself; assay: AUC; sedimentation velocity of purified His-tagged Spa33C; a single dominant species of 27 ± 3 kDa; monomer to dimer
[2] = target: T1, monomeric Spa47 (SEC-isolated) (Shigella, UniProt P0A1C1 1-430); assay: fluorescence polarisation; EGFP-Spa33C (or EGFP as control) held at 100 nM, Spa47 monomer or oligomer titrated 0-1.5 μM (monomer units); single site saturation binding model; concentration at half-maximum change in polarisation; settings: both partners purified
T1 construct: Spa47, Shigella T3SS ATPase; Same construct as m5 and m8; also called Spa47 monomer; monomeric Spa47 isolate; source: E. coli, purified (chitin column with on-column intein cleavage, anion exchange, SEC isolation of the monomer)

[3] = target: T2, oligomeric Spa47 (SEC-isolated homo-oligomer) (Shigella, UniProt P0A1C1 1-430); assay: as above; settings: both partners purified
T2 construct: Spa47, Shigella T3SS ATPase; Same construct as m5 and m7; also called Spa47 oligomer; homo-oligomeric Spa47; source: E. coli, purified (chitin column with on-column intein cleavage, anion exchange, SEC isolation of the oligomer)

| Binder | stoichiometry N [1] | Kd [2] [nM] | Kd [3] [nM] |
| --- | --- | --- | --- |
| Spa33C containing an N-terminal 6 x histidine tag (domain or fragment, Spa33, Shigella flexneri 2457T; Homodimer by SV-AUC (27 ± 3 kDa; dimer with His tag = 27.5 kDa); also called recombinant Spa33C; homo-dimeric Spa33C; source: E. coli, purified (IMAC, SEC); not shown: His6, N-terminal, kept) MNDNNEAKINLSESNGESEHTEVSLALFNYDDINVKVDFILLEKNMTINELKMYVENELFKFPDDIVKHVNIKVNGSLVGHGELVSIEDGYGIEISSWMVKE | 2 | – | – |
| EGFP-Spa33C fluorescent protein chimera with an N-terminal 6 x histidine tag (domain or fragment, Spa33, Shigella flexneri 2457T; EGFP is the fluorescent probe of the polarisation assay; Oligomer state of the chimera was not measured (Spa33C with His tag is a homodimer); also called fluorescent Spa33C construct; source: E. coli (pET15b), purified (IMAC, SEC); not shown: EGFP, N-terminal, kept) MNDNNEAKINLSESNGESEHTEVSLALFNYDDINVKVDFILLEKNMTINELKMYVENELFKFPDDIVKHVNIKVNGSLVGHGELVSIEDGYGIEISSWMVKE | – | 50 ± 7 | 80 ± 10 |
